# In ChEMBL document CHEMBL3769311, “The natural flavone fukugetin as a mixed-type inhibitor for human tissue kallikreins” (Bioorg Med Chem Lett, 2016):
# Active and inactive are the calls of the source. The calls are words filed in the database; no cut-off is given here.
# What was measured:
# [1] = biological target: Kallikrein-1 (Homo sapiens) (UniProt P06870); details: 2 to 10 uM
# [2] = tested on: O=C1CC(c2ccc(O)c(O)c2)Oc2c1c(O)cc(O)c2[C@@H]1C(=O)c2c(O)cc(O)cc2O[C@H]1c1ccc(O)cc1; details: Homo sapiens; 2 uM
# Description: Mixed-type inhibition of human tissue kallikrein-1 expressed in baculovirus infected insect cells using Abz-KLRSSQ-EDDnp as substrate assessed as enzyme Vmax at 2 uM by Lineweaver-Burk plot analysis
# [3] = tested on: O=C1CC(c2ccc(O)c(O)c2)Oc2c1c(O)cc(O)c2[C@@H]1C(=O)c2c(O)cc(O)cc2O[C@H]1c1ccc(O)cc1; details: Homo sapiens; 4 uM
# Description: Mixed-type inhibition of human tissue kallikrein-1 expressed in baculovirus infected insect cells using Abz-KLRSSQ-EDDnp as substrate assessed as enzyme Vmax at 4 uM by Lineweaver-Burk plot analysis
# [4] = tested on: O=C1CC(c2ccc(O)c(O)c2)Oc2c1c(O)cc(O)c2[C@@H]1C(=O)c2c(O)cc(O)cc2O[C@H]1c1ccc(O)cc1; details: Homo sapiens; 8 uM
# Description: Mixed-type inhibition of human tissue kallikrein-1 expressed in baculovirus infected insect cells using Abz-KLRSSQ-EDDnp as substrate assessed as enzyme Vmax at 8 uM by Lineweaver-Burk plot analysis
# [5] = tested on: O=C1CC(c2ccc(O)c(O)c2)Oc2c1c(O)cc(O)c2[C@@H]1C(=O)c2c(O)cc(O)cc2O[C@H]1c1ccc(O)cc1; details: Homo sapiens; 10 uM
# Description: Mixed-type inhibition of human tissue kallikrein-1 expressed in baculovirus infected insect cells using Abz-KLRSSQ-EDDnp as substrate assessed as enzyme Vmax at 10 uM by Lineweaver-Burk plot analysis
# [6] = tested on: O=C1CC(c2ccc(O)c(O)c2)Oc2c1c(O)cc(O)c2[C@@H]1C(=O)c2c(O)cc(O)cc2O[C@H]1c1ccc(O)cc1; details: Homo sapiens; 2 uM; remark: listed apart in the source
# Description: Mixed-type inhibition of human tissue kallikrein-1 expressed in baculovirus infected insect cells using Abz-KLRSSQ-EDDnp as substrate assessed as substrate Km at 2 uM by Lineweaver-Burk plot analysis
# [7] = tested on: O=C1CC(c2ccc(O)c(O)c2)Oc2c1c(O)cc(O)c2[C@@H]1C(=O)c2c(O)cc(O)cc2O[C@H]1c1ccc(O)cc1; details: Homo sapiens; 4 uM; remark: listed apart in the source
# Description: Mixed-type inhibition of human tissue kallikrein-1 expressed in baculovirus infected insect cells using Abz-KLRSSQ-EDDnp as substrate assessed as substrate Km at 4 uM by Lineweaver-Burk plot analysis
# [8] = tested on: O=C1CC(c2ccc(O)c(O)c2)Oc2c1c(O)cc(O)c2[C@@H]1C(=O)c2c(O)cc(O)cc2O[C@H]1c1ccc(O)cc1; details: Homo sapiens; 8 uM; remark: listed apart in the source
# Description: Mixed-type inhibition of human tissue kallikrein-1 expressed in baculovirus infected insect cells using Abz-KLRSSQ-EDDnp as substrate assessed as substrate Km at 8 uM by Lineweaver-Burk plot analysis
# [9] = tested on: O=C1CC(c2ccc(O)c(O)c2)Oc2c1c(O)cc(O)c2[C@@H]1C(=O)c2c(O)cc(O)cc2O[C@H]1c1ccc(O)cc1; details: Homo sapiens; 10 uM; remark: listed apart in the source
# Description: Mixed-type inhibition of human tissue kallikrein-1 expressed in baculovirus infected insect cells using Abz-KLRSSQ-EDDnp as substrate assessed as substrate Km at 10 uM by Lineweaver-Burk plot analysis
Compound,inhibition [1],Vmax [2] [µM/s],Vmax [3] [µM/s],Vmax [4] [µM/s],Vmax [5] [µM/s],Km [6] [µM],Km [7] [µM],Km [8] [µM],Km [9] [µM]
O=C1CC(c2ccc(O)c(O)c2)Oc2c1c(O)cc(O)c2[C@@H]1C(=O)c2c(O)cc(O)cc2O[C@H]1c1ccc(O)cc1 (some centres undefined),Active,,,,,,,,
"Kallikrein-1 (Homo sapiens), P06870",,387,285,201,160,0.8,0.85,0.93,1.12
